These results are taken from patent US20160287687A1 (IMMATICS BIOTECHNOLOGIES, published 2016).

To fix the notation:
B1: ALIVSLPYL (SEQ ID NO: 1) (peptide)
peptide: ALIVSLPYL
notes: source gene SLC17A3; also called SLC17A3-001

For the assay, the target named is T1, HLA-A*02:01 (human).
T1 construct: MHC monomers first loaded with a UV-sensitive peptide (not identified) that is cleaved by UV light and exchanged for the test peptide; captured on streptavidin plates, detected with anti-β2m; also called peptide-receptive MHC molecules; MHC class I
Briefly: UV-ligand exchange + anti-b2m ELISA; peptide exchange yield grade (+ >=10%, ++ >=20%, +++ >=50, ++++ >=75%). The text has this:
Candidate peptides for T cell based therapies according to the present invention were further tested for their MHC binding capacity (affinity). The individual peptide-MHC complexes were produced by UV-ligand exchange, where a UV-sensitive peptide is cleaved upon UV-irradiation, and exchanged with the peptide of interest as analyzed. Only peptide candidates that can effectively bind and stabilize the peptide-receptive MHC molecules prevent dissociation of the MHC complexes. To determine the yield of the exchange reaction, an ELISA was performed based on the detection of the light chain (β2m) of stabilized MHC complexes. The assay was performed as generally described in Rodenko et al. (Rodenko et al., 2006).
96 well MAXISorp plates (NUNC) were coated over night with 2 ug/ml streptavidin in PBS at room temperature, washed 4× and blocked for 1h at 37° C. in 2% BSA containing blocking buffer. Refolded HLA-A*02:01/MLA-001 monomers served as standards, covering the range of 15-500 ng/ml. Peptide-MHC monomers of the UV-exchange reaction were diluted 100 fold in blocking buffer. Samples were incubated for 1 h at 37° C., washed four times, incubated with 2 ug/ml HRP conjugated anti-β2m for 1h at 37° C., washed again and detected with TMB solution that is stopped with […]. Absorption was measured at 450 nm. Candidate peptides that show a high exchange yield (preferably higher than 50%, most preferred higher than 75%) are generally preferred for a generation and production of antibodies or fragments thereof, and/or T cell receptors or fragments thereof, as they show sufficient avidity to the MHC molecules and prevent dissociation of the MHC complexes.
(An ELISA detects its analyte on a solid surface through an enzyme-linked reagent.)
As to FIQTEAPKEV (source gene RGS5) [FIQTEAPKEV (SEQ ID NO: 11)], the peptide exchange yield was 20 to 50%.
The value for FMPEELPQL (source gene THNSL2) [FMPEELPQL (SEQ ID NO: 16)] was 20 to 50%; that for ALAVNISAA (source gene CCT6A) [ALAVNISAA (SEQ ID NO: 114)] was 50 to 75%.
For VLISVLQAI (source gene CYFIP2) [VLISVLQAI (SEQ ID NO: 108)] the value was 20 to 50%; for YVLDLAAKV (source gene ACLY) [YVLDLAAKV (SEQ ID NO: 18)], 50 to 75%.
The value for TLLETEMLL (source gene CEP44) [TLLETEMLL (SEQ ID NO: 111)] was 20 to 50%; that for VLMDLKALL (source gene DDX41) [VLMDLKALL (SEQ ID NO: 106)] was 50 to 75%; that for ILIKHLVKV (source gene ARHGAP42) [ILIKHLVKV (SEQ ID NO: 15)] was 20 to 50%.
On to KLQDGLLHI (source gene TIMP1) [KLQDGLLHI (SEQ ID NO: 103)], for which the peptide exchange yield fell in the range of 20 to 50%.
The value for B1 was 50 to 75%.
The value for ALFEGVVRQI (source gene RRAD) [ALFEGVVRQI (SEQ ID NO: 104)] was 50 to 75%; that for KLLQNNYGL (source gene RGS5) [KLLQNNYGL (SEQ ID NO: 10)] was 20 to 50%; that for KIMAQILTV (source gene LRRK2) [KIMAQILTV (SEQ ID NO: 13)] was 50 to 75%.
The value for ALDPSGNQLI (source gene SEMA5B) [ALDPSGNQLI (SEQ ID NO: 12)] was 20 to 50%; that for LLDLHSYLL (source gene MARCH6) [LLDLHSYLL (SEQ ID NO: 110)] was 20 to 50%; that for RLIQGDQILSV (source gene INADL) [RLIQGDQILSV (SEQ ID NO: 21)] was 20 to 50%.
In the case of ALADLDELLIRA (source gene HSPG2) [ALADLDELLIRA (SEQ ID NO: 105)], the peptide exchange yield was 50 to 75%.
The value for ALLTETIFL (source gene LRRK2) [ALLTETIFL (SEQ ID NO: 14)] was 20 to 50%.
The value for VLMDLKALLL (source gene DDX41) [VLMDLKALLL (SEQ ID NO: 107)] was 50 to 75%; that for ILAQQVHAL (source gene KIF12) [ILAQQVHAL (SEQ ID NO: 17)] was 50 to 75%; that for FLSPPLPSV (source genes BCKDHA, TMEM91) [FLSPPLPSV (SEQ ID NO: 22)] was 50 to 75%.
For AVANTTFTV (source gene HSD3B7) [AVANTTFTV (SEQ ID NO: 20)], the peptide exchange yield lay in the range of 20 to 50%.
LLDPGSLQL (source gene SYNDIG1L) [LLDPGSLQL (SEQ ID NO: 19)]: the peptide exchange yield lay in the range of 20 to 50%.
In the case of SLFDWNVKL (source gene UBE2QL1) [SLFDWNVKL (SEQ ID NO: 113)], the peptide exchange yield was in the range of 50 to 75%.
For YLWSRVEKL (source gene LRRK2) [YLWSRVEKL (SEQ ID NO: 109)] the value was not below 75%; for LLFDHLEPIEL (source gene RASGRP3) [LLFDHLEPIEL (SEQ ID NO: 112)], 50 to 75%.
The value for ILWREVVTL (source gene HSF4) [ILWREVVTL (SEQ ID NO: 2)] was 50 to 75%.
